Reference: PMC11172311, “Structural and Interactional Analysis of the Flavonoid Pathway Proteins: Chalcone Synthase, Chalcone Isomerase and Chalcone Isomerase-like Protein” (International Journal of Molecular Sciences, 2024)

Key:
[1] = molecular target: Panicum virgatum chalcone synthase (PvCHS) (Panicum virgatum)
[2] = molecular target: Panicum virgatum chalcone synthase (PvCHS) (Panicum virgatum); remark: listed apart in the source
[3] = molecular target: Panicum virgatum chalcone synthase (PvCHS) (Panicum virgatum); assay: ITC; PvCHS in the well, PvCHIL in the syringe; 22 injections of 2 µL; PBS; no small molecule added
[4] = molecular target: Panicum virgatum chalcone synthase (PvCHS) (Panicum virgatum); assay: as above; remark: listed apart in the source
[5] = molecular target: Panicum virgatum chalcone synthase (PvCHS) (Panicum virgatum); assay: ITC; PvCHS in the well, PvCHIL in the syringe; 22 injections of 2 µL; PBS; with naringenin at 5x molar excess
[6] = molecular target: Panicum virgatum chalcone synthase (PvCHS) (Panicum virgatum); assay: ITC; PvCHS in the well, PvCHIL in the syringe; 22 injections of 2 µL; PBS; with naringenin chalcone at 5x molar excess
[7] = molecular target: Panicum virgatum chalcone synthase (PvCHS) (Panicum virgatum); assay: crystal structure; PvCHS co-crystallised with naringenin and CoA, space group P1, four molecules in the unit cell; hanging drop, 277 K; data at 100 K
[8] = molecular target: Panicum virgatum chalcone isomerase-like protein (PvCHIL) (Panicum virgatum); assay: FRET or BRET; PvCHIL labelled with ATTO 488 (donor) held at 1 µM, PvCHS labelled with ATTO 550 (acceptor) gradually increased; PBS pH 7.4; spectra in triplicate
[9] = molecular target: Panicum virgatum chalcone isomerase (PvCHI) (Panicum virgatum); assay: FRET or BRET; PvCHI labelled with ATTO 488 (donor) held at 1 µM, PvCHS labelled with ATTO 647N (acceptor) gradually increased (0.5 to 10 µM); PBS pH 7.4; spectra in triplicate

Panicum virgatum chalcone isomerase (PvCHI) (enzyme)
Vmax of PvCHS for p-coumaroyl-CoA (naringenin plus naringenin chalcone formed) in the presence of PvCHI against PvCHS alone [1]: 24 fold
Vmax of PvCHS for p-coumaroyl-CoA in the three-protein system (PvCHS, PvCHI and PvCHIL) against PvCHS alone; PvCHIL does not compete with PvCHI [1]: 437 fold

Panicum virgatum chalcone isomerase-like protein (PvCHIL) (natural protein)
Vmax of PvCHS for p-coumaroyl-CoA in the presence of PvCHIL (5:1 molar ratio) against PvCHS alone [2]: 7.7 fold
Kd [3]: 76.3 µM
dH [3]: 31.8 kcal/mol
dH [4]: 31.9 kcal/mol
Kd [5]: 7.46 µM
dH [5]: 5.34 kcal/mol
Kd [6]: 170 µM
dH [6]: 36.4 kcal/mol

Panicum virgatum chalcone synthase (PvCHS) (enzyme)
stoichiometry N [7]: 2
Kd [8]: 26.5 µM
Kd [9]: 0.637 µM
